According to article PMC9482650, “Quantitative fragmentomics allow affinity mapping of interactomes” (Nature Communications, 2022):

Columns and labels:
Assay in all cases: holdup assay
Parameters in all cases: key: below the threshold = too weak to quantify, mostly under pKd 3.1 to 4
SHANK2, Q9UPX8 = target: T1, SHANK2, Q9UPX8
T1 sequence (Q9UPX8 621-730, limits assumed, looked up): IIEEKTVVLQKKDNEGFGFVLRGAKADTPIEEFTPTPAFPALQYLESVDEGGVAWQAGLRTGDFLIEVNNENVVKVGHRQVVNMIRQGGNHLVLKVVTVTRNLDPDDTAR

RIMS2, Q9UQ26 = target: RIMS2, Q9UQ26
CNKSR3, Q6P9H4 = target: CNKSR3, Q6P9H4
DVL2, O14641 = target: DVL2, O14641
SYNPO2L, Q9H987 = target: T2, SYNPO2L, Q9H987
T2 sequence (Q9H987 1-98, limits assumed, looked up): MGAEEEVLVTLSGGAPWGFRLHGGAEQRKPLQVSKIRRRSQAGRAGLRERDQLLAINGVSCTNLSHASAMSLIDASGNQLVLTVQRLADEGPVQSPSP

MAGI2_1, Q86UL8 = target: T3, MAGI2_1, Q86UL8
T3 sequence (Q86UL8 12-111, limits assumed, looked up): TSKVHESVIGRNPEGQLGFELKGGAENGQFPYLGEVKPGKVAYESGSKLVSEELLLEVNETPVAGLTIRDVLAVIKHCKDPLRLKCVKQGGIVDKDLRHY

SHANK3, Q9BYB0 = target: T4, SHANK3, Q9BYB0
T4 sequence (Q9BYB0 641-750, limits assumed, looked up): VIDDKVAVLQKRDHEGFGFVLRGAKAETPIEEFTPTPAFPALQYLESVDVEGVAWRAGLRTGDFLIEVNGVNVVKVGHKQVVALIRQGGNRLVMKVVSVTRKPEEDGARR

NHERF1_2, O14745 = target: T5, NHERF1_2, O14745
T5 sequence (O14745 149-244, limits assumed, looked up): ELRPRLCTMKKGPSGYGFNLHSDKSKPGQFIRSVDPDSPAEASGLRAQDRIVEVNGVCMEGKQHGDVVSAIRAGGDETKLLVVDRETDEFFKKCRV

MAST3, O60307 = target: MAST3, O60307
RGS3, P49796-9 = target: RGS3, P49796-9
USH1C_3, Q9Y6N9 = target: T6, USH1C_3, Q9Y6N9
T6 sequence (Q9Y6N9 447-547, limits assumed, looked up): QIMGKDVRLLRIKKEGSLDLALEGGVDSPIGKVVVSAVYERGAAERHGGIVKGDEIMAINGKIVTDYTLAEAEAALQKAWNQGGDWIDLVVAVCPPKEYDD

RIMS1, Q86UR5 = target: RIMS1, Q86UR5
MPP5, Q8N3R9 = target: T7, MPP5, Q8N3R9
T7 sequence (Q8N3R9 251-346, limits assumed, looked up): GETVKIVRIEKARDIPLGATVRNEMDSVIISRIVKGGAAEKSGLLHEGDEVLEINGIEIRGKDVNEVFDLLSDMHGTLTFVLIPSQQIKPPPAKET

MPDZ_11, O75970 = target: T8, MPDZ_11, O75970
T8 sequence (O75970 1720-1817, limits assumed, looked up): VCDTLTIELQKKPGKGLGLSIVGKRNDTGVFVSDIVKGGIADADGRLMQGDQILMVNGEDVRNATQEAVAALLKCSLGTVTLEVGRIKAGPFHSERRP

LNX2_4, Q8N448 = target: T9, LNX2_4, Q8N448
T9 sequence (Q8N448 595-690, limits assumed, looked up): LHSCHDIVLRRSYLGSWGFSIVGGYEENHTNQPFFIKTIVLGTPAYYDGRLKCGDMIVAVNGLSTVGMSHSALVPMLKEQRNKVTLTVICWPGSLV

PDZD2_3, O15018 = target: T10, PDZD2_3, O15018
T10 sequence (O15018 581-682, limits assumed, looked up): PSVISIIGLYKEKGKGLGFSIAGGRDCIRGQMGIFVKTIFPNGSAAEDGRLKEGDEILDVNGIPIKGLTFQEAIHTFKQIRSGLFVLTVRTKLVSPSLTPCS

MPP1, Q00013 = target: T11, MPP1, Q00013
T11 sequence (Q00013 66-162, limits assumed, looked up): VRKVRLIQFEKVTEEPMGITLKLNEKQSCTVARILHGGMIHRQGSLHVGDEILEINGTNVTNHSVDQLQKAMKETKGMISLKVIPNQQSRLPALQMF

GIPC1, O14908 = target: T12, GIPC1, O14908
T12 sequence (O14908 128-223, limits assumed, looked up): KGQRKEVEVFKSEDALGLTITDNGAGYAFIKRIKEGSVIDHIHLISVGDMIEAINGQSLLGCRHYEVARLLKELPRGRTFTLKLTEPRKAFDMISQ

PDZD2_6, O15018 = target: T13, PDZD2_6, O15018
T13 sequence (O15018 2745-2839, limits assumed, looked up): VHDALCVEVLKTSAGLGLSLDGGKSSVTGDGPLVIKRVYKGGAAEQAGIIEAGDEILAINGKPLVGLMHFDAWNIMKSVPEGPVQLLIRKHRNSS

USH1C_1, Q9Y6N9 = target: T14, USH1C_1, Q9Y6N9
T14 sequence (Q9Y6N9 82-179, limits assumed, looked up): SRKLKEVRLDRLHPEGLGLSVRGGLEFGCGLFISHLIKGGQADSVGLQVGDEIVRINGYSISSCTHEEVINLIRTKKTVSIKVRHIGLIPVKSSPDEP

PDLIM3, Q53GG5 = target: T15, PDLIM3, Q53GG5
T15 sequence (Q53GG5 1-94, limits assumed, looked up): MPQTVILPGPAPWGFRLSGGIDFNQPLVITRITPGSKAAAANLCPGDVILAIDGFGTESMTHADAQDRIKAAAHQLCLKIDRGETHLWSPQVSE

[1] = plain residues with an end cap or a label only (N-terminal biotin on a linker: ttds)
[2] = plain residues with an end cap or a label only (N-terminal biotin on a linker: none)

Measured: pKd

Chain of RIMS2, Q9UQ26 (Q9UQ26 637-758): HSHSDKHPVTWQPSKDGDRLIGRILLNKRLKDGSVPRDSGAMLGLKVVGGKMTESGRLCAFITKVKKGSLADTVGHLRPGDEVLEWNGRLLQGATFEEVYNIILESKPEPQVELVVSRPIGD
Chain of DVL2, O14641 (O14641 260-359): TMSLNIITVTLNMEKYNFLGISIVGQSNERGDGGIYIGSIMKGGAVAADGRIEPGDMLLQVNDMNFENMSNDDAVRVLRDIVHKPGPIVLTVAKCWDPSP
Chain of RGS3, P49796-9 (P49796 other isoform, or with tags, fused parts or gaps): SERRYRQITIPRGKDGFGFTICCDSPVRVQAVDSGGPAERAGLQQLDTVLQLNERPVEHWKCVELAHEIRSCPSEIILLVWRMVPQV
Chain of MAST3, O60307 (O60307 945-1048): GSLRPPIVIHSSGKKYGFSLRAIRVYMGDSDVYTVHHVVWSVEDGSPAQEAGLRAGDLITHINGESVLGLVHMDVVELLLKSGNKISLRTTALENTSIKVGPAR
Chain of RIMS1, Q86UR5 (Q86UR5 584-692): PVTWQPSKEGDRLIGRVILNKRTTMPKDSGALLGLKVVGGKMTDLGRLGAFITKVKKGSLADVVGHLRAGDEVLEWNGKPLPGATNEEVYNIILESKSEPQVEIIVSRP
Chain of CNKSR3, Q6P9H4 (Q6P9H4 203-303): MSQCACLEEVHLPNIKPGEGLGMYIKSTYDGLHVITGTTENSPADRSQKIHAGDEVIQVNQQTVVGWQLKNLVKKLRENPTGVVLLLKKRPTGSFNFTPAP

B1: DGKK, Q5KSL6 (peptide)
chain: DPLTPSRSQL
4.14: DVL2, O14641; [1]
below the threshold: SHANK2, Q9UPX8; [1] | RIMS2, Q9UQ26; [1] | CNKSR3, Q6P9H4; [1] | SYNPO2L, Q9H987; [1] | MAGI2_1, Q86UL8; [1] | SHANK3, Q9BYB0; [1] | NHERF1_2, O14745; [1] | MAST3, O60307; [1] | RGS3, P49796-9; [1] | USH1C_3, Q9Y6N9; [1] | RIMS1, Q86UR5; [1] | MPP5, Q8N3R9; [1] | MPDZ_11, O75970; [1] | LNX2_4, Q8N448; [1] | PDZD2_3, O15018; [1] | MPP1, Q00013; [1] | GIPC1, O14908; [1] | PDZD2_6, O15018; [1] | USH1C_1, Q9Y6N9; [1] | PDLIM3, Q53GG5; [1]

B2: MERS-E, K9N5R3 (peptide)
chain: DSKPPLPPDEWV
4.16: SYNPO2L, Q9H987; [2]
3.73: LNX2_4, Q8N448; [2]
4.38: RIMS1, Q86UR5; [2]
3.89: PDZD2_3, O15018; [2]
4.03: MPP5, Q8N3R9; [2]
below the threshold: SHANK2, Q9UPX8; [2] | CNKSR3, Q6P9H4; [2] | DVL2, O14641; [2] | MAGI2_1, Q86UL8; [2] | SHANK3, Q9BYB0; [2] | NHERF1_2, O14745; [2] | MAST3, O60307; [2] | USH1C_3, Q9Y6N9; [2] | MPDZ_11, O75970; [2] | MPP1, Q00013; [2] | GIPC1, O14908; [2] | PDZD2_6, O15018; [2] | USH1C_1, Q9Y6N9; [2] | PDLIM3, Q53GG5; [2]
4.39: RIMS2, Q9UQ26; [2]
4.67: RGS3, P49796-9; [2]

B3: ARHGEF16, Q5VV41 (peptide)
chain: MERLRVETDV
below the threshold: SHANK2, Q9UPX8; [1] | RIMS2, Q9UQ26; [1] | CNKSR3, Q6P9H4; [1] | DVL2, O14641; [1] | SYNPO2L, Q9H987; [1] | MAGI2_1, Q86UL8; [1] | SHANK3, Q9BYB0; [1] | NHERF1_2, O14745; [1] | MAST3, O60307; [1] | RGS3, P49796-9; [1] | USH1C_3, Q9Y6N9; [1] | RIMS1, Q86UR5; [1] | MPP5, Q8N3R9; [1] | MPDZ_11, O75970; [1] | LNX2_4, Q8N448; [1] | PDZD2_3, O15018; [1] | PDZD2_6, O15018; [1] | USH1C_1, Q9Y6N9; [1] | PDLIM3, Q53GG5; [1]
4.71: GIPC1, O14908; [1]
4.56: MPP1, Q00013; [1]

B4: DGKZ, Q13574 (peptide)
chain: IQREDQETAV
4.5: DVL2, O14641; [1]
below the threshold: SHANK2, Q9UPX8; [1] | RIMS2, Q9UQ26; [1] | CNKSR3, Q6P9H4; [1] | SYNPO2L, Q9H987; [1] | MAGI2_1, Q86UL8; [1] | SHANK3, Q9BYB0; [1] | NHERF1_2, O14745; [1] | MAST3, O60307; [1] | RGS3, P49796-9; [1] | USH1C_3, Q9Y6N9; [1] | RIMS1, Q86UR5; [1] | MPP5, Q8N3R9; [1] | MPDZ_11, O75970; [1] | LNX2_4, Q8N448; [1] | PDZD2_3, O15018; [1] | MPP1, Q00013; [1] | PDZD2_6, O15018; [1] | USH1C_1, Q9Y6N9; [1] | PDLIM3, Q53GG5; [1]
4.92: GIPC1, O14908; [1]

B5: ASIC3, Q9UHC3 (peptide)
chain: HRTCYLVTQL
4.93: SHANK2, Q9UPX8; [1]
4.35: NHERF1_2, O14745; [1]
below the threshold: RIMS2, Q9UQ26; [1] | CNKSR3, Q6P9H4; [1] | DVL2, O14641; [1] | SYNPO2L, Q9H987; [1] | USH1C_3, Q9Y6N9; [1] | RIMS1, Q86UR5; [1] | MPP5, Q8N3R9; [1] | MPDZ_11, O75970; [1] | LNX2_4, Q8N448; [1] | PDZD2_3, O15018; [1] | GIPC1, O14908; [1] | PDZD2_6, O15018; [1] | USH1C_1, Q9Y6N9; [1] | PDLIM3, Q53GG5; [1]
4.32: RGS3, P49796-9; [1]
4.01: MAGI2_1, Q86UL8; [1]
4.4: MPP1, Q00013; [1]
5.52: SHANK3, Q9BYB0; [1]
4.04: MAST3, O60307; [1]

B6: PBK, Q96KB5 (peptide)
chain: HIVEALETDV
5.15: DVL2, O14641; [1]
below the threshold: SHANK2, Q9UPX8; [1] | RIMS2, Q9UQ26; [1] | CNKSR3, Q6P9H4; [1] | SYNPO2L, Q9H987; [1] | MAGI2_1, Q86UL8; [1] | SHANK3, Q9BYB0; [1] | NHERF1_2, O14745; [1] | MAST3, O60307; [1] | RGS3, P49796-9; [1] | USH1C_3, Q9Y6N9; [1] | RIMS1, Q86UR5; [1] | MPP5, Q8N3R9; [1] | MPDZ_11, O75970; [1] | LNX2_4, Q8N448; [1] | PDZD2_3, O15018; [1] | MPP1, Q00013; [1] | PDZD2_6, O15018; [1] | USH1C_1, Q9Y6N9; [1] | PDLIM3, Q53GG5; [1]
5.37: GIPC1, O14908; [1]
